The target in one data set is bovine α-chymotrypsin (Bos taurus, UniProt P00766). The experiment in a line: Inhibition of bovine alpha-chymotrypsin by the S. solfataricus inhibitor. Type of data set: biochemical. Here is the method:
(§1) To identify the biological function of the purified inhibitor Sso0767 (SsCEI), the ability to inhibit a number of proteases was tested. The set of the proteases examined includes: the alpha-chymotrypsin, trypsin, elastase, carboxypeptidase Y, subtilisin, thrombin and two thermophilic proteases, the kumamolisin-ac and pernisine. […] The specific interaction between the inhibitor and the target proteases was also examined by incubating Sso1273 in a reaction mixture containing all the proteases investigated. In these conditions, the catalytic performance of the inhibitor was identical to that observed by assaying each protease alone.
The inhibition of Sso1273 (SsCEI) versus α-chymotrypsin followed a hyperbolic pattern with increasing concentrations of the inhibitor and the IC50 value (50% inhibitory concentration) was 0.10 μM (Table II).
The reciprocals of the rate of the substrate hydrolysis for each inhibitor concentration were plotted against the reciprocals of the substrate concentrations. Ki was determined from the formula as per the competitive type of inhibition.
(§2) In Table II are reported Ki and IC50 values that are the average of 3-5 separate determinations.

The next data set concerns subtilisin. The experiment in a line: Protease specificity panel: subtilisin. Type of data set: biochemical. The method, then:
as §1

The target of data set [1] is T1, carboxypeptidase Y (Saccharomyces cerevisiae, UniProt P00729).
T1 sequence (P00729 112-532): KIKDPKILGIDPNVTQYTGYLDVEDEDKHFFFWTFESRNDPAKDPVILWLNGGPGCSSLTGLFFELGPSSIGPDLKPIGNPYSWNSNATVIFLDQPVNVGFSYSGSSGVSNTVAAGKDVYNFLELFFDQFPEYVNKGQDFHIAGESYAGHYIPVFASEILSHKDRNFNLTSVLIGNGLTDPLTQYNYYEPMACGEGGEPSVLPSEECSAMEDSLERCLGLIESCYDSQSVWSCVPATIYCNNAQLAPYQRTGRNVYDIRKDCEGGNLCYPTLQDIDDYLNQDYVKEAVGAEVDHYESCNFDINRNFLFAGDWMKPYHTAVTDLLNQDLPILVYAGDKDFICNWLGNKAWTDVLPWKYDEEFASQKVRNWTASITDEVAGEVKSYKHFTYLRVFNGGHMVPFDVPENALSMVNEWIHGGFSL
The experiment in a line: Protease specificity panel: carboxypeptidase Y. Type of data set: biochemical. The method, then: as §1

Data set [2] in a line: Stability of the purified inhibitor (heat, denaturants, digestive proteases). It is filed as physicochemical.
The next data set concerns the target porcine elastase (Sus scrofa, UniProt P00772). The experiment in a line: Inhibition of porcine elastase by the S. solfataricus inhibitor. It is filed as biochemical. Here is the method:
as §1, §2

Another data set relates to thrombin. The experiment in a line: Protease specificity panel: thrombin. It is filed as biochemical. The method, then:
as §1

The test system of a further data set is trypsin. The experiment in a line: Protease specificity panel: trypsin. Type of data set: biochemical. The method, then: as §1
The target of data set [3] is T1, carboxypeptidase Y. The note with it: read-out: inhibition constant, carboxypeptidase Y; cited from earlier work.

Here are results for 2 molecules from patent US20110275569A1, “PROTEASES TARGETING AGENTS” (CONSIGLIO NAZIONALE DELLE RICERCHE, priority 2008, published 2011).

porcine elastase, sequence (P00772 27-266): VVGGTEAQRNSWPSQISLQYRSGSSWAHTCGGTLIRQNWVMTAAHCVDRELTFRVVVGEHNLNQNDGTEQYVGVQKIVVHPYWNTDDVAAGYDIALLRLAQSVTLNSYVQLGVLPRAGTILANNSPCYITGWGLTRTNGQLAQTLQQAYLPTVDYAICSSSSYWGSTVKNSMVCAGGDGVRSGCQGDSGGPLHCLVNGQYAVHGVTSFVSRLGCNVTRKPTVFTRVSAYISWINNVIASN

B1: Sso0767: recombinant protease inhibitor protein from Sulfolobus solfataricus, PEBP family I51, monomer of 19.0 kDa, 157 amino acids (protein, listed as Sulfolobus solfataricus)
chain: MNSESIYSMRVVSSAFKNEDFIPIKYTCDGQDLSPELEWDLVTNAKSYAIIVEDPDAPGGTFIHWVIYNITTNRLPEGVPRLYKSQYGVQGVNDFGNIGYNGPCPPKTHPPHRYYFYVYAIDTILLEIKNINADKLKSLMEGHGIERGFVMGKYKRK
As to B1, the “inhibition activity toward α-chymotrypsin (in words)” value in the data set with bovine α-chymotrypsin is “best target protease among those tested”. Further, the “type of inhibition of α-chymotrypsin” value in the data set with bovine α-chymotrypsin (Lineweaver-Burk reciprocal plot) is “competitive inhibitor”. The effect on subtilisin result with subtilisin is listed as “not affected”. Further, the “effect on carboxypeptidase Y” value in the data set with carboxypeptidase Y [1] was “not affected”. The “resistance to common protein denaturants” value in data set [2] is on record as “high resistance”. In addition, the “thermostability: inhibitory activity after incubation” value in data set [2] (4 days at 90° C.) is “no reduction in inhibitory activity”. Further, the “resistance to digestive proteases” value in data set [2] (several digestive proteases) is “resistant”. The “inhibition activity versus elastase (in words)” value with porcine elastase is recorded as “clear activity”. Moreover, the effect on thrombin result in the data set on thrombin was “not affected”. The effect on trypsin entry in the data set on trypsin is reported as “not affected”.

B2: TFS1: protein of the yeast, founder of the family I51, able to inhibit the carboxypeptidase Y (protein, UniProt P14306 1-219, looked up)
Carboxypeptidase Y inhibitor: MNQAIDFAQASIDSYKKHGILEDVIHDTSFQPSGILAVEYSSSAPVAMGNTLPTEKARSKPQFQFTFNKQMQKSVPQANAYVPQDDDLFTLVMTDPDAPSKTDHKWSEFCHLVECDLKLLNEATHETSGATEFFASEFNTKGSNTLIEYMGPAPPKGSGPHRYVFLLYKQPKGVDSSKFSKIKDRPNWGYGTPATGVGKWAKENNLQLVASNFFYAETK
Regarding B2, the Ki with carboxypeptidase Y [3] is 1.8 nM.
